Reference: US20260250410A1 (SICHUAN HUIYU PHARMACEUTICAL, published 2026)

T1: MsCDCP1 (mouse, UniProt Q5U462 30-666)
T1 construct: extracellular domain; also called mouse CDCP1; not shown: Fc or his tag
T1 sequence (looked up): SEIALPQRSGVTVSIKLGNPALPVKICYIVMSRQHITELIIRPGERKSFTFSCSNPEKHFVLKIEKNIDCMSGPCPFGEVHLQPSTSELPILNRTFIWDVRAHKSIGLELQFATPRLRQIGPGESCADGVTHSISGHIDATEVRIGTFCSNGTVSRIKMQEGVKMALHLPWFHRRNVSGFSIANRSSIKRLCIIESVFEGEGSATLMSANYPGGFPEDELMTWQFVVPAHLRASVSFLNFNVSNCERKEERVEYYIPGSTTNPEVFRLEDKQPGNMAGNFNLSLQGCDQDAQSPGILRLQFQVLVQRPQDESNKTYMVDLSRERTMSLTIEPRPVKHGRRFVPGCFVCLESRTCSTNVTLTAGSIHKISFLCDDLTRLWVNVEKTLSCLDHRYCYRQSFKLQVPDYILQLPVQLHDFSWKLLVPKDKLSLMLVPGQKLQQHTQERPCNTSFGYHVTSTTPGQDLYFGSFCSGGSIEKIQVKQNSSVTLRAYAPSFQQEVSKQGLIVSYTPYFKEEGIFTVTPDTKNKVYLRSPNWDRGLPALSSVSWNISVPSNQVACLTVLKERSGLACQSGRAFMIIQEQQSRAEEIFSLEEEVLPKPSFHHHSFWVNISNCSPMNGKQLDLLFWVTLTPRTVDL


These binders were tested against T1, MsCDCP1 (assay: SPR (Caterra), antigen immobilized).
Description: The humanized anti-CDCP1 antibodies obtained from Example 11 were subjected to gene cloning, constructed into pTT5 expression vector for a small amount of expression in CHO cells (Expi-CHOS: Gibco A29127), and purified with an Fc affinity column (AT Protein A Diamond Plus. No. AA402312). Antibody purity was analyzed by HPLC and determined by Nanodrop. High-throughput affinity assay was carried out for a small amount of antibodies by Caterra.
Further, Partial anti-CDCP1 humanized antibodies were selected for expression, and then the affinity of the antibodies to the antigens Hu-CDCP1-A, Hu-CDCP1-B, Cyno-CDCP1, and Ms-CDCP1 was detected according to the above affinity detection method.

Binder | Kd | binding result
1CP-124 (antibody, human IgG1, kappa, V domains shown, humanized 3C11, human IgG1 kappa) VH: QVQLVQSGAEVKKPGASVKVSCKASGYNFISYWLHWVRQAPGQGLEWMGGIYPGNTDTTYNQKFKGRVTMTRDTSTSTVYMELSSLRSEDTAVYYCIRYDYDRGMDYWGQGTLVTVSS VL: DIQMTQSPSSLSASVGDRVTITCRASEDIYYRLAWYQQKPGKAPKLLISGATALETGVPSRFSGSGSGKDYTFTISSLQPEDIATYYCQHYWNIPWTFGQGTKVEIKR | 274 nM | 
1CP-129 (antibody, human IgG1, kappa, V domains shown, humanized 3C11, human IgG1 kappa) VH: QVQLVQSGAEVKKPGASVKVSCKASGYNFISYWLHWVRQAPGQGLEWMGGIYPGNTDTTYNQKFKGRVTMTADTSTSTVYMELSSLRSEDTAVYYCIRYDYDRGMDYWGQGTLVTVSS VL: DIQMTQSPSSLSASVGDRVTITCRASEDIYYRLAWYQQKPGKAPKLLISGATALETGVPSRFSGSGSGKDYTLTISSLQPEDIATYYCQHYWNIPWTFGQGTKVEIKR |  | no binding (tested: 150 nM highest concentration)
1CP-128 (antibody, human IgG1, kappa, V domains shown, humanized 3C11, human IgG1 kappa) VH: QVQLVQSGAEVKKPGASVKVSCKASGYNFISYWLHWVRQAPGQGLEWMGGIYPGNTDTTYNQKFKGRVTMTRDTSTSTVYMELSSLRSEDTAVYYCIRYDYDRGMDYWGQGTLVTVSS VL: DIQMTQSPSSLSASVGDRVTITCRASEDIYYRLAWYQQKPGKAPKLLISGATALETGVPSRFSGSGSGKDYTLTISSLQPEDIATYYCQHYWNIPWTFGQGTKVEIKR |  | no binding (tested: 150 nM highest concentration)
1CP-125 (antibody, human IgG1, kappa, V domains shown, humanized 3C11, human IgG1 kappa) VH: QVQLVQSGAEVKKPGASVKVSCKASGYNFISYWLHWVRQAPGQGLEWMGGIYPGNTDTTYNQKFKGRVTMTADTSTSTVYMELSSLRSEDTAVYYCIRYDYDRGMDYWGQGTLVTVSS VL: DIQMTQSPSSLSASVGDRVTITCRASEDIYYRLAWYQQKPGKAPKLLISGATALETGVPSRFSGSGSGKDYTFTISSLQPEDIATYYCQHYWNIPWTFGQGTKVEIKR |  | no binding (tested: 150 nM highest concentration)
1CP-152 (antibody, human IgG1, kappa, V domains shown, humanized 8C9, human IgG1 kappa) VH: EVQLVESGGGLVQPGRSLRLSCTTSGLTFTHYHMSWVRQAPGKGLEWVAIIRNKAYGYTTDYSASVRGRFTISRDDSKSILYLQMNSLKTEDTAVYYCVREGGYGYDGTFAYWGQGTLVTVSS VL: DIQMTQSPSSLSASVGDRVTITCRASESVDNYGISFMNWFQQKPGQAPKLLIYAASNQGSGVPSRFSGSGSGTDFTLTISSMQPEDFATYYCQQSKEVPRTFGGGTKVEIKR | 745 nM | 
1CP-157 (antibody, human IgG1, kappa, V domains shown, humanized 8C9, human IgG1 kappa) VH: EVQLVESGGGLVQPGRSLRLSCTTSGLTFTHYHMSWVRQAPGKGPEWVAIIRNKAYGYTTDYSASVRGRFTISRDDSKSILYLQMNSLKTEDTAVYYCVREGGYGYDGTFAYWGQGTLVTVSS VL: DIQMTQSPSSLSASVGDRVTITCRASESVDNYGISFMNWFQQKPGQPPKLLIYAASNQGSGVPSRFSGSGSGTDFTLTISSMQPEDFATYYCQQSKEVPRTFGGGTKVEIKR |  | no binding (tested: 150 nM highest concentration)
1CP-121 (antibody, human IgG1, kappa, V domains shown, humanized 8E5, human IgG1 kappa) VH: QVQLVQSGSELKKPGASVKVSCKASGYTLTDFSMHWVRQAPGQGLEWMGWINTETGAPTYADDFKGRFVLSLDTSVSTAYLQISSLKAEDTAVYYCSRGRDYDPHFDYWGQGTLVTVSS VL: EIVLTQSPATLSLSPGERATLSCRASQSISDFLHWYQQKSGQSPRLLIKYASQSISGIPARFSGSGSGSDFTLTISSVEPEDFAVYYCQSAHSFPYTFGQGTKLEIKR | 141 nM | 
